In patent US20250333531A1:

Molecular target: human CD37 (human) (UniProt P11049)
Experiment: flow cytometry on Ramos cells (HEK293 supernatants), MFI normalised to chHH1-DOTA

Sequence of human CD37 (human) (P11049 whole entry): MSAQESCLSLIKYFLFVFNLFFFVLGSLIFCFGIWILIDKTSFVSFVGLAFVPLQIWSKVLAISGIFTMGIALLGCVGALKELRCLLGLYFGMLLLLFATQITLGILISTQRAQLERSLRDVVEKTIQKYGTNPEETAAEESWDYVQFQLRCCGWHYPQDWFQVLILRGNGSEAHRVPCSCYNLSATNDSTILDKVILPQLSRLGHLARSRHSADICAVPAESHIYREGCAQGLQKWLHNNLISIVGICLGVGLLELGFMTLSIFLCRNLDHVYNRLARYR

B1: HC1 + LC1 (antibody, human IgG1, V domains shown)
VH: QVQLVQSGAEVKKPGASVKVSCKASGYSFTDYNMYWVRQAPGQRLEWMGYIDPYNGDTTYNQKFKGRVTITRDTSASTAYMELSSLRSEDTAVYYCARSPYGHYAMDYWGQGTLVTVSS
VL: DIQMTQSPSSLSASVGDRVTITCKASQDVSTAVDWYQQKPGKAPKLLIYWASTRHTGVPSRFSGSGSGTDFTLTISSLQPEDFATYYCRQHYSTPFTFGQGTKLEIK
- Normalized average binding (%): 40%
